Where two headings read alike, the source gives them in different places.
Tests used:
[1] = biological target: T1, Prostaglandin D2 receptor 2 (CRTH2R) (UniProt Q9Y5Y4 1-395); experiment: FACS binding; CHO CRTH2R-positive cells
T1 chain: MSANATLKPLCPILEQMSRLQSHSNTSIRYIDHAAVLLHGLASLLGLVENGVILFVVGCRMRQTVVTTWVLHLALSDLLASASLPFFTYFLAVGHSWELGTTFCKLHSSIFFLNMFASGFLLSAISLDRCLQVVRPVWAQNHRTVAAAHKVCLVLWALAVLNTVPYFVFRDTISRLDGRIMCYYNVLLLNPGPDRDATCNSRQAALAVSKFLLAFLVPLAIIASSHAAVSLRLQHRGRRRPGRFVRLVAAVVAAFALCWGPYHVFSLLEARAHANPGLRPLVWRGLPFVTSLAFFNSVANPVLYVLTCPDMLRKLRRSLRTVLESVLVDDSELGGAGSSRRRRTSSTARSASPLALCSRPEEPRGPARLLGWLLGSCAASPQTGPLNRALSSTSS

[2] = biological target: T1, Prostaglandin D2 receptor 2 (CRTH2R); experiment: FACS binding; CHO CRTH2R-positive cells
[3] = biological target: T2, Prostaglandin D2 receptor 2 (CRTH2R) (human, UniProt Q9Y5Y4 1-395); experiment: cell-based or functional assay
T2 sequence: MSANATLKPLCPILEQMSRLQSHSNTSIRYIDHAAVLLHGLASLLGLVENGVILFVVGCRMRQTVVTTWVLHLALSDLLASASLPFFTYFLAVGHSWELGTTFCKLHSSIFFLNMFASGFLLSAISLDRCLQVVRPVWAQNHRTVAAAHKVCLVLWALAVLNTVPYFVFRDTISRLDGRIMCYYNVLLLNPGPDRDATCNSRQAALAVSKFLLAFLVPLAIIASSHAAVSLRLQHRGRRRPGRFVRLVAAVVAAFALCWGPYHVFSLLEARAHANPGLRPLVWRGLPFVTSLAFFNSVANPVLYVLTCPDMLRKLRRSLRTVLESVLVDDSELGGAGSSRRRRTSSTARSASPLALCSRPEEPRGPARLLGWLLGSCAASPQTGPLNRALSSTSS

[4] = biological target: T1, Prostaglandin D2 receptor 2 (CRTH2R); experiment: FACS binding; CHO CRTH2R-positive cells
[5] = biological target: T1, Prostaglandin D2 receptor 2 (CRTH2R); experiment: FACS binding; CHO CRTH2R-positive cells

B1: CRTH2 57 (antibody, V domains shown)
VH: QVQLVQSGAEVKKPGSSVKVSCKASGGTFSSYAMSWVRQAPGQGLEWMGGIIPLFGTTDYAQKFQGRVTITADESTSTAYMELSSLRSEDTAVYYCARANQHFVKIQGAPVSTPVPGFGTTGYHYYGMDVWGQGTLVTVSS
VL: QSVLTQPPSVSAAPGQKVTISCSGSSSNIEDNYVSWYQQLPGTAPKLLIYDNFKRPSGIPDRFSGSKSGTSATLGITGLQTGDEADYYCGTWDTSLSAALFGGGTKLTVL
[1]
  EC50: 158 nM

B2: CRTH2-15 (antibody, V domains shown)
VH: QVQLVQSGAEVKKPGSSVKVSCKASGGTFSTYAIDWVRQAPGQGLEWMGGIIPLFGSPNYAQKFQGRVTITADESTSTAYMELSSLRSEDTAVYYCARANQHFFLYEGTSSSWLHVGHARYGYHYYGMDVWGQGTLVTVSS
VL: QSVLTQPPSVSAAPGQKVTISCSGSGSNIGSNYVSWYQQLPGTAPKLLIYDNIRRPSGIPDRFSGSKSGTSATLGITGLQTGDEADYYCAAWDTRLSAGVFGGGTKLTVL
[2]
  EC50: 73.8 nM
[3]
  antagonist activity in PGD2-induced cAMP assay at 33 nM IgG: > 20%

B3: CRTH2-8 (antibody, V domains shown)
VH: QVQLVQSGAEVKKPGSSVKVSCKASGGTFTDYAISWVRQAPGQGLEWMGGIIPFFGSPNYAQKFQGRVTITADESTSTAYMELSSLRSEDTAVYYCARDMYYDFAAGLEGTITEVFDEEGHQGGTEVVPADDAFDIWGQGTLVTVSS
VL: QSVLTQPPSVSAAPGQKVTISCSGSSSNIGKNYVSWYQQLPGTAPKLLIYDNNQRPSGIPDRFSGSKSGTSATLGITGLQTGDEADYYCGTWDTSLTSVVFGGGTKLTVL
[3]
  antagonist activity in PGD2-induced cAMP assay at 33 nM IgG: > 20%

B4: CRTH2-27 (antibody, V domains shown)
VH: QVQLVESGGGVVQPGRSLRLSCAASGFTFDNYGMHWVRQAPGKGLEWVAVISYEGSNKKYADSVKGRFTISRDNSKNTLYLQMNSLRAEDTAVYYCARDMYYDFGSIYGEDVVGELPEVVPADDAFDIWGQGTLVTVSS
VL: QSALTQPASVSGSPGQSITISCTGTSNDVGAYNFVSWYQQHPGKAPKLMIYDISNRPSGVSNRFSGSKSGNTASLTISGLQAEDEADYYCSSYTRSNTRVFGGGTKLTVL
[3]
  IC50 fold difference of the PGD2 dose response curve (cAMP assay, 100 nM IgG): > 2 fold

B5: CRTH2 66 (antibody)
chain 1: QVQLVESGGGVVQPGRSLRLSCAASGFDFSGYGMHWVRQAPGKGLEWVAVISYEGSNKFYADSVKGRFTISRDNSKNTLYLQMNSLRAEDTAVYYCARDLRELECEEWTIEVHGQEFAVHQDRGGVFSRGPCVDPRGVAGSFDVWGQGTLVTVSS
chain 2: EIVMTQSPATLSVSPGERATLSCRASQGVGSNLAWYQQKPGQAPRLLIYRTSIRATGIPARFSGSGSGTEFTLTISSLQSEDFAVYYCQQYYSWPPLTFGGGTKVEIK
[1]
  EC50: 3.95 nM

B6: CRTH2 35 (antibody, V domains shown)
VH: QVQLVQSGAEVKKPGSSVKVSCKASGGTFRSYAISWVRQAPGQGLEWMGGIIPISGTTNYAQKFQGRVTITADESTSTAYMELSSLRSEDTAVYYCARANQHFTRIFGNYQIYFGHFGYHYYGMDVWGQGTLVTVSS
VL: QSALTQPASVSGSPGQSITISCTGTSSDIGGYEFVSWYQQHPGKAPKLMIYGVSRRPSGVSNRFSGSKSGNTASLTISGLQAEDEADYYCGSYTSSSTPYVFGGGTKLTVL
[4]
  EC50: 12.6 nM

B7: CRTH2-60 (antibody, V domains shown)
VH: QVQLVQSGAEVKKPGSSVKVSCKASGGTFKNYAINWVRQAPGQGLEWMGAIIPKFGAANYAQKFQGRVTITADESTSTAYMELSSLRSEDTAVYYCARANQHFSAVRGLAFGYGYRIGGYHYYGMDVWGQGTLVTVSS
VL: QSVLTQPPSVSAAPGQKVTISCSGSTSNIGINYVSWYQQLPGTAPKLLIYENRKRPSGIPDRFSGSKSGTSATLGITGLQTGDEADYYCATWDASLKNLVFGGGTKLTVL
[3]
  antagonist activity in PGD2-induced cAMP assay at 33 nM IgG: > 20%

B8: CRTH2-19 (antibody, V domains shown)
VH: QVQLVQSGAEVKKPGSSVKVSCKASGGTFSSHAINWVRQAPGQGLEWMGRIIPIVGTTTYAQKFQGRVTITADESTSTAYMELSSLRSEDTAVYYCARDMYYDFDYFGLTLTGDRNDDEVVPADDAFDIWGQGTLVTVSS
VL: QSALTQPASVSGSPGQSITISCTGTSSDVGGYDYVTWYQQHPGKAPKLMIYDVDTRPSGVSNRFSGSKSGNTASLTISGLQAEDEADYYCSSYTTSTSYVFGGGTKLTVL
[3]
  antagonist activity in PGD2-induced cAMP assay at 33 nM IgG: > 20%
[5]
  EC50: 16.7 nM

B9: CRTH2-24 (antibody, V domains shown)
VH: QVQLVQSGAEVKKPGSSVKVSCKASGGSFSNYGISWVRQAPGQGLEWMGGIIPLIGTANYAQKFQGRVTITADESTSTAYMELSSLRSEDTAVYYCARDMYYDFTLGPQSIGPLGEVVPADDAFDIWGQGTLVTVSS
VL: QSVLTQPPSVSAAPGQKVTISCSGSSSNIGNNFVSWYQQLPGTAPKLLIYDNIQRPSGIPDRFSGSKSGTSATLGITGLQTGDEADYYCGTWDTSLSAVVFGGGTKLTVLR
[3]
  antagonist activity in PGD2-induced cAMP assay at 33 nM IgG: > 20%

B10: CRTH2-32 (antibody, V domains shown)
VH: QVQLVESGGGVVQPGRSLRLSCAASGFTFSKHGMHWVRQAPGKGLEWVAFISYEGSEKYYADSVKGRFTISRDNSKNTLYLQMNSLRAEDTAVYYCARDMYYDFHYSTVGATYYYYLGSETEVVPADDAFDIWGQGTLVTVSS
VL: QSALTQPASVSGSPGQSITISCTGTSSGVGGYDYVSWYQQHPGKAPKLMIYDDNNRPSGVSNRFSGSKSGNTASLTISGLQAEDEADYYCSSYTGSSTLYVFGGGTKLTVL
[3]
  IC50 fold difference of the PGD2 dose response curve (cAMP assay, 100 nM IgG): > 2 fold
[4]
  EC50: 12.4 nM

B11: CRTH2-42 (antibody)
VH: QVQLVESGGGVVQPGRSLRLSCAASGFAFSSYAMHWVRQAPGKGLEWVAVISYEGSNEYYADSVKGRFTISRDNSKNTLYLQMNSLRAEDTAVYYCARDLRELECEEWTVLQYGKFHMRWAESGEGSLSRGPCVDPRGVAGSFDVWGQGTLVTVSS
VL: QSALTQPASVSGSPGQSITISCTGTSSDVGGYRYVSWYQQHPGKAPKLMIYNVNYRPSGVSNRFSGSKSGNTASLTISGLQAEDEADYYCSSYRSSSTLGVFGGGTKLTVL
[3]
  IC50 fold difference of the PGD2 dose response curve (cAMP assay, 100 nM IgG): > 2 fold
  antagonist activity in PGD2-induced cAMP assay at 33 nM IgG: > 20%

B12: CRTH2-45 (antibody)
VH: QVQLVESGGGVVQPGRSLRLSCAASGFTFSHYAMHWVRQAPGKGLEWVADISHEGSNKYYADSVKGRFTISRDNSKNTLYLQMNSLRAEDTAVYYCARDGRGSLPRPKGGPTSGGGFSTNIGYGFVVQSYDSSEDSGGAFDIWGQGTLVTVSS
VL: QSVLTQPPSVSAAPGQKVTISCSGTSSNIENNYVSWYQQLPGTAPKLLIYDNVKRPSGIPDRFSGSKSGTSATLGITGLQTGDEADYYCGTWDNTVSAPWVFGGGTKLTVL
[3]
  antagonist activity in PGD2-induced cAMP assay at 33 nM IgG: > 20%
[4]
  EC50: 23.2 nM

B13: CRTH2-70 (antibody, V domains shown)
VH: QVQLVQSGAEVKKPGSSVKVSCKASGGTFSNHAIIWVRQAPGQGLEWMGGIIPIFGTPSYAQKFQGRVTITADESTSTAYMELSSLRSEDTAVYYCARDMYYDFDVISAGVVGAGNPEVVPADDAFDIWGQGTLVTVSS
VL: QSVLTQPPSVSAAPGQKVTISCSGSTSNIGNNFVSWYQQLPGTAPKLLIYDNEKRPSGIPDRFSGSKSGTSATLGITGLQTGDEADYYCGTWDERQTDESYVFGGGTKLTVL
[3]
  antagonist activity in PGD2-induced cAMP assay at 33 nM IgG: > 20%

B14: CRTH2-74 (antibody)
VH: QVQLVESGGGVVQPGRSLRLSCAASGFSFSEYGIHWVRQAPGKGLEWVAVISYEGSNEYYADSVKGRFTISRDNSKNTLYLQMNSLRAEDTAVYYCARANQHFGPVAGGATPSEEPGSQLTRAELGWDAPPGQESLADELLQLGTEHGYHYYGMDVWGQGTLVTVSS
VL: QSVLTQPPSVSAAPGQKVTISCSGSTSNIGKNYVSWYQQLPGTAPKLLIYDDDERPSGIPDRFSGSMSGTSATLGITGLQTGDEADYYCEAWDADLSGAVFGGGTKLTVL
[3]
  antagonist activity in PGD2-induced cAMP assay at 33 nM IgG: > 20%
[5]
  EC50: 8.61 nM

B15: CRTH2-28 (antibody, V domains shown)
VH: QVQLVQSGAEVKKPGSSVNVSCKASGGTFSDYAFSWVRQAPGQGLEWMGAIIPFFGTVNYAQKFQGRVTITADESTSTAYMELSSLRSEDTAVYYCARDMYYDFATGTGGPEDDLYPQGELNDGYRIEVVPADDAFDIWGQGTLVTVSS
VL: QSVLTQPPSVSAAPGQKVTISCSGSISNIGKNYVSWYQQLPGTAPKLLIYDDHKRPSGIPDRFSGSKSGTSATLGITGLQTGDEADYYCATWDRGLSAAVFGGGTKLTVL
[3]
  antagonist activity in PGD2-induced cAMP assay at 33 nM IgG: > 20%

B16: CRTH2-9 (antibody, V domains shown)
VH: QVQLVQSGAEVKKPGSSVKVSCKASGGTFSSYAISWVRQAPGQGLEWMGGIIPIFGTANYAQKFQGRVTITADESTSTAYMELSSLRSEDTAVYYCARDMYYDFWLGDQSTGSLIGAEVVPADDAFDIWGQGTLVTVSS
VL: QSVLTQPPSVSAAPGQKVTISCSGSTSNIGNNYVSWYQQLPGTAPKLLIYENDERPSGIPDRFSGSKSGTSATLGITGLQTGDEADYYCATWDTRLSAVVFGGGTKLTVL
[3]
  IC50 fold difference of the PGD2 dose response curve (cAMP assay, 100 nM IgG): > 2 fold
  antagonist activity in PGD2-induced cAMP assay at 33 nM IgG: > 20%
